We go through one molecule from patent publication CN117964771A (ZHIZE TONGKANG GUANGZHOU BIOTECHNOLOGY CO LTD, dated 2024).

What is called Kd is the equilibrium constant for the complex coming apart.

The assay addresses T1, 人基质金属蛋白酶7(hMMP7)重组蛋白 (human, UniProt P09237 18-267, limits assumed).
T1 construct: Recombinant protein made according to UniProt P09237; also called MMP7抗原; MMP7蛋白
T1 sequence (looked up): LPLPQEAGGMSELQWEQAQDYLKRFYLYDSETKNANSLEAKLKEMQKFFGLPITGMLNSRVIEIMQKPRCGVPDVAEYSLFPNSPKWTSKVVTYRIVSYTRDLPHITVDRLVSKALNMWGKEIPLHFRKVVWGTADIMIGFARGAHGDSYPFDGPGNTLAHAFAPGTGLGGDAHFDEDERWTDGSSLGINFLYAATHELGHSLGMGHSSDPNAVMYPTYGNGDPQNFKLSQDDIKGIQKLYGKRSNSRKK
Kind of assay: SPR, labelled MMP7 immobilised on chip, antibody as analyte (100 nM, 2-fold dilutions), 1:1 Langmuir model. Background: SPR reads the build-up and loss of mass on a sensor chip optically.

B1: MMP7单克隆抗体M4 (antibody, mouse IgG1, kappa, V domains shown)
VH: QVQLQQSGAELMKPGASVKLSCKASGYTFTSYYMYWVKQRPGQGLEWIGEINPSNADTEFNEKFKSKATLTVDKSSSTAYMQLSSLTSEDSAVYYCTRWPLYGAMDYWGQGTSVTVSS
VL: DVQITQSPSYLAASPGETITINCRASKSISKYLAWYQEKPGKTNKLLIYSGHWLQSGIPSRFSGSGSGSDFTLTISSLEPEDFAMYYCQQHFEYPWTFGAGTKLELKR
B1 returned a dissociation constant Kd of under 1 nM.
